Patent publication KR20230086338A (dated 2023)

Target: T1, 재조합 인간 MUC1-C 항원 (MUC1-C ECD) (human, UniProt P15941 1098-1158)
T1 construct: also called 재조합 MUC1-C 단백질; 재조합 hMUC1-항원
T1 sequence: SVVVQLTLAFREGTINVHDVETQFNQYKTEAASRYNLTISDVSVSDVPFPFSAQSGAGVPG
Experiment: BLI (Octet RED 96); MUC1-C antigen immobilised on AR2G sensor at 5 μg/mL, antibody 0.626-20 nM, 1:2 binding model

B1: KC-001 항체 (인간 MUC1-C 항체 KC-001) (antibody, V domains shown)
VH: QVQLVESGGGLVQPGGSLRLSCAASGFTFSNYGMSWVRQAPGKGLEWVSSISNGGGSTSYADSVKGRFTISRDNSKNTLYLQMNSLRAEDTAVYYCAGWGIRGVTRPYYYYGMDVWGQGTTITVSS
VL: DIVMTQTPLSLSVTPGQPASISCKSSQSLLHSDRKTYLYWYLQKPGQSPQLLIYEASNRFSGVPDRFSGGGSGTDFTLKISRVEADDVGIYYCMQGLHPIT
notes: Human antibody from a naive scFv phage library; also called 항-MUC1 항체
- Kd: 6.49 nM
